According to patent publication US20190031760A1 (Hoffmann-La Roche, published 2019):

Assays:
[1] = target: T1, full-length human ASGPR H1 with a C-terminal SNAP tag, on transfected HEK293 cells (human, UniProt P07306 1-291, SNAP tag labeled with SNAP-Lumi4Tb (terbium)); assay: FRET on HEK293 cells expressing terbium-labeled ASGPR H1-SNAP; IgG1 at 50-0.39 nM, anti-humanFc-d2 as acceptor
T1 construct: whole, on cells; Transiently expressed in HEK293 cells for the FRET assay; also called transmembrane ASGPR H1-SNAP tag fusion protein labeled with terbium
T1 sequence (looked up): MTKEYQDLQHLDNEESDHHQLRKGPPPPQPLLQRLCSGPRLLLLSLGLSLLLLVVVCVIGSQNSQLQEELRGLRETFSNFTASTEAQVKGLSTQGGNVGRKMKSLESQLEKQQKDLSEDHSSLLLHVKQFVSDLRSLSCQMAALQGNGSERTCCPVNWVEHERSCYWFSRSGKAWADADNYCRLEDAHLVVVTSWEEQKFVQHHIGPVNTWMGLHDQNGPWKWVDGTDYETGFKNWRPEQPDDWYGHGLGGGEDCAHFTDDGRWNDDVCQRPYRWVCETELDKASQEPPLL

[2] = target: T2, human ASGPR H1 on ASGPR-positive hepatic cells (HepG2, primary human hepatocytes, Huh-7) (human, UniProt P07306 1-291); assay: FACS on HepG2 cells, purified Fab at 1.1, 3.3 and 10 µg/ml, 30 min at 4°C, FITC anti-human F(ab')2 secondary
T2 construct: whole, on cells; Endogenous receptor on cells; the antibodies were selected on H1; also called surface-exposed ASGPR
T2 sequence (looked up): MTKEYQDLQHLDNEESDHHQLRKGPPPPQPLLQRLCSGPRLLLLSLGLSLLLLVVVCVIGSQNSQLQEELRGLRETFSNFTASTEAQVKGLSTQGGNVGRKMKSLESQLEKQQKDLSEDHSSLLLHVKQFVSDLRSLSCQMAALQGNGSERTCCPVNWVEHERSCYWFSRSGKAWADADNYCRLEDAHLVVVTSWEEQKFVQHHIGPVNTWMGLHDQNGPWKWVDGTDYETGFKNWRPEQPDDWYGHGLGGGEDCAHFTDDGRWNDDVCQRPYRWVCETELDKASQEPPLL

[3] = target: T3, avi-Fc-human ASGPR H1 CRD (human, UniProt P0DOX5 223-449 = IgG part, biotinylated at the N-terminal Avi tag); assay: SPR (ProteOn XPR36), antigen captured by neutravidin, Fab as analyte;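 on result: antigen surface loaded to 200, 400 or 800 RU in PBST pH 7.4, sensorgrams referenced against a buffer-only in-line channel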
T3 construct: also called Fc-CRD; hu/cyASGPR H1 CRD

[4] = target: T3, avi-Fc-human ASGPR H1 CRD; assay: SPR (ProteOn XPR36), antigen captured by neutravidin, antibody construct as analyte
[5] = target: T3, avi-Fc-human ASGPR H1 CRD; assay: SPR (ProteOn XPR36), antigen captured by neutravidin, Fab as analyte; remark: listed apart in the source;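 on result: antigen surface loaded to 200, 400 or 800 RU in PBST pH 7.4, sensorgrams referenced against a buffer-only in-line channel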
[6] = target: T4, avi-Fc-human CLEC10A stalk CRD (human, biotinylated at the N-terminal Avi tag); assay: as above
T4 construct: Homodimeric Fc fusion of the human CLEC10A ECD, closest homologue of ASGPR H1, used as specificity control; also called huCLEC10A stalk CRD
T4 sequence (chain, as listed by the source limits assumed): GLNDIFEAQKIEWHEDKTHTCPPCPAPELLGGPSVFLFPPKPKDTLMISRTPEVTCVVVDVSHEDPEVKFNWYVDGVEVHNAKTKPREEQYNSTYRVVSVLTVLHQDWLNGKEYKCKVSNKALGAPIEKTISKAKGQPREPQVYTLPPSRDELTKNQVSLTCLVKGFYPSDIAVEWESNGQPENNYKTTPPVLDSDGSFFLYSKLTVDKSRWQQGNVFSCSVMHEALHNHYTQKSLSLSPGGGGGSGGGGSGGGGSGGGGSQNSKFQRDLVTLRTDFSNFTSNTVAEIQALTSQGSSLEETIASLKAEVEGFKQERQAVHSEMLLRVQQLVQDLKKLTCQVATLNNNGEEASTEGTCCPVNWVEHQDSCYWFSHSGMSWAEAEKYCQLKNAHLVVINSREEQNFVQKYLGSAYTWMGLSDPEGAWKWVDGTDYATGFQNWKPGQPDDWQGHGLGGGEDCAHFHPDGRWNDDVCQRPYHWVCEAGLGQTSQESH

[7] = target: T5, avi-Fc-cynomolgus ASGPR H1 stalk CRD (cynomolgus, biotinylated at the N-terminal Avi tag); assay: as above
T5 construct: Homodimeric Fc fusion of the cynomolgus ASGPR H1 ECD; also called cyASGPR H1 stalk CRD

[8] = target: T6, avi-Fc-human ASGPR H1 stalk CRD (human, biotinylated at the N-terminal Avi tag); assay: as above
T6 construct: Homodimeric (bivalent) Fc fusion of the human ASGPR H1 ECD (stalk and CRD); also called huASGPR H1 stalk CRD; Fc-stalk-CRD

[9] = target: T7, avi-Fc-human ASGPR H1 stalk (human, biotinylated at the N-terminal Avi tag); assay: as above
T7 construct: Homodimeric Fc fusion (wild type Fc); also called huASGPR H1 stalk; Fc-stalk
T7 sequence (chain, as listed by the source limits assumed): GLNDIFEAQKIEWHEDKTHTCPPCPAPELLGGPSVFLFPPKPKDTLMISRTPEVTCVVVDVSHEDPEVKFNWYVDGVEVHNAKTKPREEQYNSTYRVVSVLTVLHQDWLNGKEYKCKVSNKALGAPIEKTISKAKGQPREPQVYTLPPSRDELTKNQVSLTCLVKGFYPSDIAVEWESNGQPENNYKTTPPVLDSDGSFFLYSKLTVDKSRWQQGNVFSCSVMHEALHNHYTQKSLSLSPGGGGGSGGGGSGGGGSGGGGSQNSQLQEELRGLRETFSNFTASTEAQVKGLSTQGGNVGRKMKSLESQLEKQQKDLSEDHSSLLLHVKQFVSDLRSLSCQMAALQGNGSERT

[10] = target: T8, avi-Fc-cynomolgus ASGPR H1 stalk (cynomolgus, biotinylated at the N-terminal Avi tag); assay: as above
T8 construct: Homodimeric Fc fusion (wild type Fc); also called cyASGPR H1 stalk
T8 sequence (chain, as listed by the source limits assumed): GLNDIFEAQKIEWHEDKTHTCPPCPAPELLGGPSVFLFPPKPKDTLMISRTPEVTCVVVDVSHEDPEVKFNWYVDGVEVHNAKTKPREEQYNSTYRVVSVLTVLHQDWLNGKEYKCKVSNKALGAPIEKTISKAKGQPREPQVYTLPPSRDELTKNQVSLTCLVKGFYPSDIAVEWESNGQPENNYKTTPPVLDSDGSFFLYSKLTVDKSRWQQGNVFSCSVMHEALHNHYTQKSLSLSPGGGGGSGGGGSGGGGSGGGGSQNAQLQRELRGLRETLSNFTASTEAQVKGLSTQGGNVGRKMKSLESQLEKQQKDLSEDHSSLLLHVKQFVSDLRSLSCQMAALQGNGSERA

B1: R7E12 IgG (antibody, V domains shown)
VH: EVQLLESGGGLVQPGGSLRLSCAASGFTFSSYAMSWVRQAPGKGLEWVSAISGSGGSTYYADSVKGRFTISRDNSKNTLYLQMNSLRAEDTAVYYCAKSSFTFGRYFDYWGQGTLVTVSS
VL: SSELTQDPAVSVALGQTVRITCQGDSLRSYYASWYQQKPGQAPVLVIYGKNNRPSGIPDRFSGSSSGNTASLTITGAQAEDEADYYCNSRKSSSKNVVFGGGTKLTVL
notes: To be rechecked
[1]
  Kd: 22 nM

B2: 51A12_E7 Fab (Fab, V domains shown)
VH: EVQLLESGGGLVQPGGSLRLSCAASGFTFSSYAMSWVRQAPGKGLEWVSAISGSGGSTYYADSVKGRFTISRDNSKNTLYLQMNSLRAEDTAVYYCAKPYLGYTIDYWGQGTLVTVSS
VL: SSELTQDPAVSVALGQTVRITCQGDSLRSYYASWYQQKPGQAPVLVIYGKNNRPSGIPDRFSGSSSGNTASLTITGAQAEDEADYYCNSRDYRYNRAVRPFGGGTKLTVL
notes: Fab
[2]
  binding result: binds
[3]
  Kd: 0.448 nM
  koff: 9.64e-05 s⁻¹
  kon: 215000 M⁻¹ s⁻¹

B3: 51A12 IgG (antibody, V domains shown)
VH: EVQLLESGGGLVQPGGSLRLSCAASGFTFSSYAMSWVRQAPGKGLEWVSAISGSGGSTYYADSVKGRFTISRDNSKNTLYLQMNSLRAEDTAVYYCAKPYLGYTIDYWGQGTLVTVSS
VL: SSELTQDPAVSVALGQTVRITCQGDSLRSYYASWYQQKPGQAPVLVIYGKNNRPSGIPDRFSASSSGNTASLTITGAQAEDEADYYCNSRDICCNRSVRNFGGGTKLTVL
notes: also called 51A12 human IgG1 antibody; clone 51A12 IgG
[1]
  Kd: 200 nM
[4]
  Kd: 0.21 nM
  koff: 7.34e-05 s⁻¹
  kon: 350000 M⁻¹ s⁻¹

B4: 51A12 Fab (Fab, V domains shown)
VH: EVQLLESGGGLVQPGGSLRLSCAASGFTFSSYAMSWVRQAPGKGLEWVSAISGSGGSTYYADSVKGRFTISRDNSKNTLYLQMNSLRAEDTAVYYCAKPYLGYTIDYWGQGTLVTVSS
VL: SSELTQDPAVSVALGQTVRITCQGDSLRSYYASWYQQKPGQAPVLVIYGKNNRPSGIPDRFSASSSGNTASLTITGAQAEDEADYYCNSRDICCNRSVRNFGGGTKLTVL
notes: Human lambda Fab from E. coli, purified by IMAC; also called clone 51A12; parental clone 51A12
[4]
  Kd: 0.571 nM
  koff: 6.28e-05 s⁻¹
  kon: 110000 M⁻¹ s⁻¹
[3]
  Kd: 0.57 nM
  koff: 6.28e-05 s⁻¹
  kon: 110000 M⁻¹ s⁻¹
[5]
  Kd: 0.57 nM
  koff: 6.28e-05 s⁻¹
  kon: 110000 M⁻¹ s⁻¹

B5: 51A12 S116A Fab (Fab, V domains shown)
VH: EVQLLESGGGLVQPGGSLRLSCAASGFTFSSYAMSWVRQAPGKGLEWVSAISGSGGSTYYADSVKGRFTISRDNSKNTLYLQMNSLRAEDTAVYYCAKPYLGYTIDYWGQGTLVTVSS
VL: SSELTQDPAVSVALGQTVRITCQGDSLRSYYASWYQQKPGQAPVLVIYGKNNRPSGIPDRFSASSSGNTASLTITGAQAEDEADYYCNSRDICCNRAVRNFGGGTKLTVL
notes: Fab
[2]
  binding result: binds
[3]
  Kd: 1.43 nM
  koff: 0.000178 s⁻¹
  kon: 131000 M⁻¹ s⁻¹

B6: 51A12_A6 Fab (Fab, V domains shown)
VH: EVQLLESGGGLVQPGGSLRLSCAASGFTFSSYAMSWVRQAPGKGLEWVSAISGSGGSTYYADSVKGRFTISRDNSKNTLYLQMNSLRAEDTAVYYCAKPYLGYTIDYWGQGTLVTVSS
VL: SSELTQDPAVSVALGQTVRITCQGDSLRSYYASWYQQKPGQAPVLVIYGKNNRPSGIPDRFSGSSSGNTASLTITGAQAEDEADYYCNSRTYSYNRAVRNFGGGTKLTVL
notes: Fab; also called Variant 51A12_A6
[2]
  binding result: binds
[3]
  Kd: 0.0801 nM
  koff: 2.61e-05 s⁻¹
  kon: 326000 M⁻¹ s⁻¹

B7: 51A12_C1 Fab (Fab, V domains shown)
VH: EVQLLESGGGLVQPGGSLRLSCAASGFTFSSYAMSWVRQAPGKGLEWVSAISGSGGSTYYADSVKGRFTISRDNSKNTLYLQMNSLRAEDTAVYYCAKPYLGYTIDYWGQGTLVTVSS
VL: SSELTQDPAVSVALGQTVRITCQGDSLRSYYASWYQQKPGQAPVLVIYGKNNRPSGIPDRFSGSSSGNTASLTITGAQAEDEADYYCNSRSYAFNRVVRNFGGGTKLTVL
notes: Fab
[2]
  binding result: binds
[3]
  Kd: 0.241 nM
  koff: 4.19e-05 s⁻¹
  kon: 174000 M⁻¹ s⁻¹

B8: 51A12_C7 Fab (Fab, V domains shown)
VH: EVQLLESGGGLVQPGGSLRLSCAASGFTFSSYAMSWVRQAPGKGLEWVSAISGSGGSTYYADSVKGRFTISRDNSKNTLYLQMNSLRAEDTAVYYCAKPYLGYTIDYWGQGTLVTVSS
VL: SSELTQDPAVSVALGQTVRITCQGDSLRSYYASWYQQKPGQAPVLVIYGKNNRPSGIPDRFSGSSSGNTASLTITGAQAEDEADYYCNSRDIRYNRVVRPFGGGTKLTVL
notes: Fab
[2]
  binding result: binds
[3]
  Kd: 0.235 nM
  koff: 4.67e-05 s⁻¹
  kon: 199000 M⁻¹ s⁻¹

B9: 51A12_D1 Fab (Fab, V domains shown)
VH: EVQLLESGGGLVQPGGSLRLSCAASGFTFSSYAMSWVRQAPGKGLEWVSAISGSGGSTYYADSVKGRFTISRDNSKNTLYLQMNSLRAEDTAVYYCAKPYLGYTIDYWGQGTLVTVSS
VL: SSELTQDPAVSVALGQTVRITCQGDSLRSYYASWYQQKPGQAPVLVIYGKNNRPSGIPDRFSGSSSGNTASLTITGAQAEDEADYYCNSRTYSYNRAVRPFGGGTKLTVL
notes: Fab
[2]
  binding result: binds
[3]
  Kd: 0.221 nM
  koff: 8.85e-05 s⁻¹
  kon: 400000 M⁻¹ s⁻¹

B10: 51A12_H3 Fab (Fab, V domains shown)
VH: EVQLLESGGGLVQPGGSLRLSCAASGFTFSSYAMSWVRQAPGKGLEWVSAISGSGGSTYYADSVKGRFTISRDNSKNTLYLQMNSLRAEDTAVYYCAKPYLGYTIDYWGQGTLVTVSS
VL: SSELTQDPAVSVALGQTVRITCQGDSLRSYYASWYQQKPGQAPVLVIYGKNNRPSGIPDRFSGSSSGNTASLTITGAQAEDEADYYCNSRDYKFNRVVRNFGGGTKLTVL
notes: Fab
[2]
  binding result: binds
[3]
  Kd: 0.51 nM
  koff: 8.3e-05 s⁻¹
  kon: 163000 M⁻¹ s⁻¹

B11: 51A12_H6 Fab (Fab, V domains shown)
VH: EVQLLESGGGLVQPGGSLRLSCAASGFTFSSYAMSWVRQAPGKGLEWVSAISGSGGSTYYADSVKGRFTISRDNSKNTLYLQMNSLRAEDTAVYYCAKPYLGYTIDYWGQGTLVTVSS
VL: SSELTQDPAVSVALGQTVRITCQGDSLRSYYASWYQQKPGQAPVLVIYGKNNRPSGIPDRFSGSSSGNTASLTITGAQAEDEADYYCNSRDYKWNRVVRHFGGGTKLTVL
notes: Fab
[2]
  binding result: binds
[3]
  Kd: 0.325 nM
  koff: 2.79e-05 s⁻¹
  kon: 86000 M⁻¹ s⁻¹

B12: 52C4 Fab (Fab, V domains shown)
VH: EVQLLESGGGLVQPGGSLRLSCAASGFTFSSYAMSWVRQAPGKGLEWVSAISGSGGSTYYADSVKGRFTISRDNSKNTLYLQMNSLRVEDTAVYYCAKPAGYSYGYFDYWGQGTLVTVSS
VL: SSELTQDPAVSVALGQTVRITCQGDSLRSYYASWYQQKPGQAPVLVIYGKNNRPSGIPDRFSGSSSGNTASLTITGAQAEDEADYYCNSGASSGNQLVFGGGTKLTVL
notes: Human lambda Fab from E. coli
[4]
  Kd: 28.6 nM
  koff: 0.00396 s⁻¹
  kon: 139000 M⁻¹ s⁻¹
[5]
  Kd: 28.6 nM
  koff: 0.00396 s⁻¹
  kon: 139000 M⁻¹ s⁻¹
[6]
  binding result: no binding

B13: R7E12 Fab (Fab, V domains shown)
VH: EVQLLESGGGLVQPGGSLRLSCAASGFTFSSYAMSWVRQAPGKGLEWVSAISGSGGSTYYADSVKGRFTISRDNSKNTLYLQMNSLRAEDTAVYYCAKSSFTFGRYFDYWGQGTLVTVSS
VL: SSELTQDPAVSVALGQTVRITCQGDSLRSYYASWYQQKPGQAPVLVIYGKNNRPSGIPDRFSGSSSGNTASLTITGAQAEDEADYYCNSRKSSSKNVVFGGGTKLTVL
notes: To be rechecked
[7]
  Kd: 9.55 nM
  koff: 0.00236 s⁻¹
  kon: 247000 M⁻¹ s⁻¹
[8]
  Kd: 9.12 nM
  koff: 0.00268 s⁻¹
  kon: 294000 M⁻¹ s⁻¹
[6]
  binding result: no binding

B14: 4F3 Fab (Fab, V domains shown)
VH: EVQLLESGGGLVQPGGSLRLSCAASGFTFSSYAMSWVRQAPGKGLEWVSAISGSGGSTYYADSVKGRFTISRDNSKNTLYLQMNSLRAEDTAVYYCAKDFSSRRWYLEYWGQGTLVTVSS
VL: SSELTQDPAVSVALGQTVRITCQGDSLRSYYASWYQQKPGQAPVLVIYGKNNRPSGIPDRFSGSSSGNTASLTITGAQAEDEADYYCNSLERIGYLSYVFGGGTKLTVL
notes: Human lambda Fab from E. coli; also called clone 4F3
[7]
  Kd: 21.6 nM
  koff: 0.00365 s⁻¹
  kon: 169000 M⁻¹ s⁻¹
[9]
  Kd: 29.5 nM
  koff: 0.00445 s⁻¹
  kon: 151000 M⁻¹ s⁻¹
[8]
  Kd: 18.2 nM
  koff: 0.00408 s⁻¹
  kon: 224000 M⁻¹ s⁻¹
[10]
  Kd: 33.6 nM
  koff: 0.0048 s⁻¹
  kon: 143000 M⁻¹ s⁻¹
[6]
  binding result: no binding

B15: R9E10 Fab (Fab, V domains shown)
VH: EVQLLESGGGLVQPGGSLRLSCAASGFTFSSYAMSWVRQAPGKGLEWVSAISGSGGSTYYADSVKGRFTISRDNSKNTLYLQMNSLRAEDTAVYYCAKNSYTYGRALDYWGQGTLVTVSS
VL: SSELTQDPAVSVALGQTVRITCQGDSLRSYYASWYQQKPGQAPVLVIYGKNNRPSGIPDRFSGSSSGNTASLTITGAQAEDEADYYCNSRNVRGKLVFGGGTKLTVL
notes: Human lambda Fab from E. coli
[7]
  Kd: 4.34 nM
  koff: 0.00199 s⁻¹
  kon: 460000 M⁻¹ s⁻¹
[8]
  Kd: 3.6 nM
  koff: 0.00211 s⁻¹
  kon: 586000 M⁻¹ s⁻¹
[6]
  binding result: no binding

B16: R5C2 Fab (Fab, V domains shown)
VH: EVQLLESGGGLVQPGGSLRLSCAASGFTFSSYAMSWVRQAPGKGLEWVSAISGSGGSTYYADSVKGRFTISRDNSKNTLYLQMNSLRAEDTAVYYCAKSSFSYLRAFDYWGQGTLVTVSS
VL: SSELTQDPAVSVALGQTVRITCQGDSLRSYYASWYQQKPGQAPVLVIYGRNNRPSGIPDRFSGSSSGNTASLTITGAQAEDEADYYCNSRDRRGYSVFGGGTKLTVL
notes: Human lambda Fab from E. coli
[7]
  Kd: 3.41 nM
  koff: 0.00114 s⁻¹
  kon: 334000 M⁻¹ s⁻¹
[8]
  Kd: 2.65 nM
  koff: 0.00112 s⁻¹
  kon: 423000 M⁻¹ s⁻¹
[6]
  binding result: no binding

B17: R5C2 IgG (antibody, V domains shown)
VH: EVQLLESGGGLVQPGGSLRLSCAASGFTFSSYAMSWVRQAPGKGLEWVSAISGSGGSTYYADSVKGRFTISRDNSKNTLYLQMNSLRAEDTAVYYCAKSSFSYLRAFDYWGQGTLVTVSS
VL: SSELTQDPAVSVALGQTVRITCQGDSLRSYYASWYQQKPGQAPVLVIYGRNNRPSGIPDRFSGSSSGNTASLTITGAQAEDEADYYCNSRDRRGYSVFGGGTKLTVL
notes: also called R5C2 human IgG1 antibody
[1]
  Kd: 5.9 nM

B18: R9E10 IgG (antibody, V domains shown)
VH: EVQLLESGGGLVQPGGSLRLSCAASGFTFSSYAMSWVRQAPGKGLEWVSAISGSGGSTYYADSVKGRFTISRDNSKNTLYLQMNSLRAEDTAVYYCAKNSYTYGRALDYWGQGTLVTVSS
VL: SSELTQDPAVSVALGQTVRITCQGDSLRSYYASWYQQKPGQAPVLVIYGKNNRPSGIPDRFSGSSSGNTASLTITGAQAEDEADYYCNSRNVRGKLVFGGGTKLTVL
notes: also called R9E10 human IgG1 antibody
[1]
  Kd: 6.2 nM

B19: 4F3 IgG (antibody, V domains shown)
VH: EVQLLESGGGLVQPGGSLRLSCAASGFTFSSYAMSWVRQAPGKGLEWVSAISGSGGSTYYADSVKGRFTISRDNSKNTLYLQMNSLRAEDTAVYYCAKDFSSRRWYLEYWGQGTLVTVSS
VL: SSELTQDPAVSVALGQTVRITCQGDSLRSYYASWYQQKPGQAPVLVIYGKNNRPSGIPDRFSGSSSGNTASLTITGAQAEDEADYYCNSLERIGYLSYVFGGGTKLTVL
notes: also called 4F3 human IgG1 antibody; clone 4F3
[1]
  Kd: 4.5 nM

B20: 51A12 A82G S116A Fab (Fab, V domains shown)
VH: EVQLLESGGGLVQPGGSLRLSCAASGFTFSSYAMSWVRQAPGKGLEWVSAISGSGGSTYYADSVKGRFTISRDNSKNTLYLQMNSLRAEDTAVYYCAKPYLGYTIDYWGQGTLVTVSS
VL: SSELTQDPAVSVALGQTVRITCQGDSLRSYYASWYQQKPGQAPVLVIYGKNNRPSGIPDRFSGSSSGNTASLTITGAQAEDEADYYCNSRDICCNRAVRNFGGGTKLTVLG
notes: Light chain variant of 51A12 with the parental heavy chain; To be rechecked
[3]
  Kd: 1.25 nM
  koff: 0.00016 s⁻¹
  kon: 127000 M⁻¹ s⁻¹
